Source: the supplement of paper PMC10567573

B1: TRAF3IP2 (parent)
chain: KEHVPTWLQNTHVYSWPKNKKNIL

Variants of: B1
Assay: protein stability index of a GFP-peptide fusion (GPS, HEK-293T) (PSI 1-6); higher = more stable
Conditions: c terminus: a fixed tail appended
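Also: lentivirally expressed fusions sorted by FACS into six bins by GFP to DsRed ratio, PSI derived from sequencing read proportions per bin multiplied by bin number.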

Protein stability index: each site, then its substitutions
N22: Q 2.72, G 2.7, K 2.9, C 1.71, D 2.04, P 2.84, H 2.08, A 2.41, F 1.67, M 2.19, V 2.51, I 1.5, S 1.97, T 2.75, L 1.7, Y 1.56, E 2.64, R 2.2
H12: Q 2.55, L 1.79, N 2.62, Y 2.6, E 3.38, C 2.46, V 2.05, T 2.82, M 2.42, W 1.82, D 2.75, G 2.8, R 3.02, A 2.86, P 2.94, I 2.17, S 3.17, F 2.13, K 2.51
L24: D 3.24, E 2.84, T 3.18, C 2.69, N 3.08, V 2.47, M 2.73, Y 2.51, P 2.98, F 2.2, K 3.49, I 2.67, Q 2.98, G 3.93, R 3.49, W 1.86, H 3.17, S 2.51, A 3.28
I23: L 2.68, Y 3.55, D 3.75, K 3.52, T 2.54, C 3.02, F 2.69, P 2.54, V 3.07, Q 2.75, S 2.94, E 3.54, M 2.91, W 2.3, N 3.19, A 2.89, G 2.96, H 3.19, R 3.74
S15: C 2.15, Q 2.49, W 1.68, Y 2.27, N 2.21, D 2.89, T 2.54, E 2.6, L 2.22, G 2.99, M 2.23, F 1.97, V 2.43, I 1.7, K 2.77, P 2.7, A 3.19, H 2.27, R 3.12
N10: Y 2.6, V 2.85, W 1.64
N19: I 2.08, V 2.34, L 1.55, T 2.01, K 2.06, S 2.61, G 2.56, Y 2.03, H 2.19, E 2.72, W 1.4, M 1.97, R 2.3, D 3.03, Q 2.51, P 2.43, A 2.81, F 2.02, C 2.98
K18: P 3.12, I 2.05, M 2.42, V 2.14, Q 3.64, D 2.17, C 2.33, G 2.53, A 2.66, F 2.12, R 3.38, W 1.91, T 2.52, E 2.88, L 2.41, Y 3.3, H 2.37, N 2.81, S 2.1
Y14: D 3, A 3.14, K 2.49, S 3.4, R 2.73, G 3.05, M 2.76, H 3.46, N 3.24, T 3, F 2.05, I 3.71, W 1.98, Q 3.06, C 2.63, L 2.29, V 2.69, P 2.98, E 3.14
W16: V 2.88, P 3.82, M 2.75, C 2.88, L 3.02, D 3.53, G 3.55, H 3.39, E 3.77, N 3.39, T 3.68, K 2.81, I 3.05
